One test deals with HLA-A*80:01. Description: IEDB peptide-MHC binding, purified MHC/direct/fluorescence; filed as Kd, often an IC50 or EC50 that approximates it; ≥ and ≤ were set here for values at or beyond the usual limits of such assays. The note with it: source organism: Human immunodeficiency virus 1.
A further test deals with HLA-A*26:01. Description: IEDB peptide-MHC binding, purified MHC/competitive/fluorescence; filed as Kd, often an IC50 or EC50 that approximates it; ≥ and ≤ were set here for values at or beyond the usual limits of such assays. Particulars: source organism: Human immunodeficiency virus 1.
The target of test [1] is HLA-B*08:01. The test is described as above. The note with it: source organism: Human immunodeficiency virus 1.
In a further test the target is HLA-B*15:17. The test is described as above. The note with it: source organism: Human immunodeficiency virus 1.
The target of a further test is HLA-B*57:01. The test is described as above. Particulars: source organism: Human immunodeficiency virus 1.
A further test concerns the target HLA-B*38:01. The description is as above. Particulars: source organism: Human immunodeficiency virus 1.
Test [2] has as its target HLA-A*01:01. The test is described as above. Particulars: source organism: Human immunodeficiency virus 1.
A further test deals with HLA-A*30:01. Described as above. The note with it: source organism: Human immunodeficiency virus 1.
The next test has as its target HLA-B*15:09. The test is described as above. Particulars: source organism: Human immunodeficiency virus 1.
Test [3] concerns the target HLA-A*01:01. The test is described as follows: IEDB peptide-MHC binding, purified MHC/competitive/radioactivity; ≥ and ≤ were set here for values at or beyond the usual limits of such assays. Particulars: source organism: Human papillomavirus 16.
In another test the target is HLA-B*27:20. The test is described as follows: IEDB peptide-MHC binding, purified MHC/competitive/fluorescence; filed as Kd, often an IC50 or EC50 that approximates it; ≥ and ≤ were set here for values at or beyond the usual limits of such assays. The note with it: source organism: Rickettsia felis URRWXCal2.
The next test deals with HLA-B*45:06. Described as above. The note with it: source organism: Rickettsia felis URRWXCal2.
A further test addresses HLA-B*15:42. The test is described as above. Particulars: source organism: Rickettsia felis URRWXCal2.
The next test concerns the target HLA-A*32:07. The description is as above. The note with it: source organism: Rickettsia felis URRWXCal2.
In the next test the target is HLA-B*40:13. The description is as above. Particulars: source organism: Rickettsia felis URRWXCal2.
The next test concerns the target HLA-B*46:01. The test is described as above. Particulars: source organism: Rickettsia felis URRWXCal2.
For another test, the target named is HLA-B*15:02. Described as above. The note with it: source organism: Rickettsia felis URRWXCal2.
In a further test the target is HLA-C*06:02. The description is as above. The note with it: source organism: Rickettsia felis URRWXCal2.
A further test concerns the target HLA-A*32:15. The description is as above. Particulars: source organism: Rickettsia felis URRWXCal2.
The next test deals with HLA-C*14:02. Described as above. Particulars: source organism: Rickettsia felis URRWXCal2.
For a further test, the target named is HLA-B*83:01. Described as above. The note with it: source organism: Rickettsia felis URRWXCal2.
Test [4] addresses HLA-A*24:02. The test is described as follows: IEDB peptide-MHC binding, cellular MHC/competitive/fluorescence; ≥ and ≤ were set here for values at or beyond the usual limits of such assays. The note with it: source organism: Human herpesvirus 5 strain AD169.
In the next test the target is HLA-C*01:02. Description: IEDB peptide-MHC binding, purified MHC/direct/fluorescence; filed as Kd, often an IC50 or EC50 that approximates it; ≥ and ≤ were set here for values at or beyond the usual limits of such assays. The note with it: source organism: Homo sapiens.
In a further test the target is HLA-B*51:01. The test is described as follows: IEDB peptide-MHC binding, purified MHC/competitive/fluorescence; ≥ and ≤ were set here for values at or beyond the usual limits of such assays. The note with it: source organism: Homo sapiens.
The target of another test is HLA-A*31:01. Described as above. The note with it: source organism: Homo sapiens.
Another test has as its target HLA-A*25:01. Described as above. Particulars: source organism: Homo sapiens.
The next test has as its target HLA-B*07:02. Described as above. The note with it: source organism: Homo sapiens.
In a further test the target is HLA-B*14:02. The test is described as above. Particulars: source organism: Homo sapiens.
Test [5] has as its target HLA-B*08:01. Described as above. Particulars: source organism: Homo sapiens.
The target of test [6] is HLA-A*24:02. The test is described as above. The note with it: source organism: Homo sapiens.
For another test, the target named is HLA-A*02:01. The test is described as above. Particulars: source organism: Homo sapiens.
In another test the target is HLA-A*29:02. The description is as above. The note with it: source organism: Homo sapiens.
The target in the next test is HLA-A*68:02. The description is as above. The note with it: source organism: Homo sapiens.
The target of test [7] is HLA-A*01:01. Described as above. The note with it: source organism: Homo sapiens.
The next test concerns the target HLA-A*11:01. The test is described as above. Particulars: source organism: Homo sapiens.
Another test has as its target HLA-B*40:02. The test is described as above. The note with it: source organism: Homo sapiens.
For the next test, the target named is HLA-B*35:01. Described as above. Particulars: source organism: Homo sapiens.
Another test has as its target HLA-B*18:01. The test is described as above. The note with it: source organism: Homo sapiens.
In another test the target is HLA-B*37:01. The description is as above. Particulars: source organism: Homo sapiens.
Another test has as its target HLA-B*53:01. Described as above. Particulars: source organism: Homo sapiens.
The target of a further test is HLA-A*03:01. The description is as above. The note with it: source organism: Homo sapiens.
The next test deals with HLA-B*44:03. The description is as above. Particulars: source organism: Homo sapiens.
For the next test, the target named is HLA-B*58:01. Described as above. The note with it: source organism: Homo sapiens.

Where only a bound is given, the exact number is not on record here.

In the case of GTEEIRSLF, the Kd is no less than 20000 nM with HLA-A*80:01; no less than 20000 nM with HLA-A*26:01; no less than 20000 nM with HLA-B*08:01 [1]; 223 nM with HLA-B*15:17; 347 nM with HLA-B*57:01; no less than 20000 nM with HLA-B*38:01. In addition, the Kd is no less than 20000 nM with HLA-A*01:01 [2], 11000 nM with HLA-A*30:01 and no less than 20000 nM with HLA-B*15:09.

As for QVDYYGLYY, the IC50 with HLA-A*01:01 [3] amounted to 18 nM.

With FMYALSRAF, the Kd with HLA-B*27:20 is no more than 0.1 nM; with HLA-B*45:06, no less than 5000 nM; with HLA-B*15:42, no less than 5000 nM; with HLA-A*32:07, 493 nM; with HLA-B*40:13 it was 4.5 nM; in the test with HLA-B*46:01, 6.6 nM. Further, the Kd in the test with HLA-B*15:02 was 2.2 nM; with HLA-C*06:02, 64.5 nM; with HLA-A*32:15 it was 27.7 nM; in the test with HLA-C*14:02, no more than 0.1 nM; with HLA-B*83:01, no less than 5000 nM.

FFFDIDLLL registered an IC50 with HLA-A*24:02 [4] of no less than 333000 nM.

In the test with HLA-C*01:02, ELHDHGVSSL registered a Kd of 3.9 nM.

In the case of LPSCPTNFCIF, the IC50 with HLA-B*51:01 was no less than 20000 nM; with HLA-A*31:01, no less than 20000 nM; with HLA-A*25:01, no less than 20000 nM; with HLA-B*07:02, 562 nM; in the test with HLA-B*14:02, no less than 20000 nM; with HLA-B*08:01 [5], no less than 20000 nM. For the same sequence, the IC50 with HLA-A*24:02 [6] was 1110 nM; in the test with HLA-A*02:01 it was no less than 20000 nM; with HLA-A*29:02 it was no less than 20000 nM; in the test with HLA-A*68:02, no less than 20000 nM; with HLA-A*01:01 [7], no less than 20000 nM; in the test with HLA-A*11:01, no less than 20000 nM. The IC50 in the test with HLA-B*40:02 is no less than 20000 nM; with HLA-B*35:01, 47.7 nM; with HLA-B*18:01, no less than 20000 nM; with HLA-B*37:01 it was no less than 20000 nM; with HLA-B*53:01 it was 851 nM; with HLA-A*03:01, no less than 20000 nM. Also, the IC50 with HLA-B*44:03 and with HLA-B*58:01 was no less than 20000 nM in each case.

The values are drawn from the Immune Epitope Database (IEDB).
